This note sets out measurements from US9175305B2, “Mutant hydroxyphenylpyruvate dioxygenase polypeptides and methods of use” (Syngenta Participations AG, priority 2009, dated 2015).

The chains are these.
B1: L269F: L269F mutant of SEQ ID NO:14 (protein)
chain: MPPTPATATGAAAAAVTPEHAARSFPRVVRVNPRSDRFPVLSFHHVELWCADAASAAGRFSFALGAPLAARSDLSTGNSAHASLLLRSGALAFLFTAPYAPPPQEAATAATASIPSFSADAARTFAAAHGLAVRSVGVRVADAAEAFRVSVAGGARPAFAPADLGHGFGLAEVELYGDVVLRFVSYPDETDLPFLPGFERVSSPGAVDYGLTRFDHVVGNVPEMAPVIDYMKGFLGFHEFAEFTAEDVGTTESGLNSVVLANNSEAVLFPLNEPVHGTKRRSQIQTYLEYHGGPGVQHIALASNDVLRTLREMRARTPMGGFEFMAPPQAKYYEGVRRIAGDVLSEEQIKECQELGVLVDRDDQGVLLQIFTKPVGDRPTFFLEMIQRIGCMEKDEVGQEYQKGGCGGFGKGNFSELFKSIEDYEKSLEVKQSVVAQKS
modifications: mutant HPPD polypeptide
B2: G254S: G254S mutant of SEQ ID NO:14 (protein)
chain: MPPTPATATGAAAAAVTPEHAARSFPRVVRVNPRSDRFPVLSFHHVELWCADAASAAGRFSFALGAPLAARSDLSTGNSAHASLLLRSGALAFLFTAPYAPPPQEAATAATASIPSFSADAARTFAAAHGLAVRSVGVRVADAAEAFRVSVAGGARPAFAPADLGHGFGLAEVELYGDVVLRFVSYPDETDLPFLPGFERVSSPGAVDYGLTRFDHVVGNVPEMAPVIDYMKGFLGFHEFAEFTAEDVGTTESSLNSVVLANNSEAVLLPLNEPVHGTKRRSQIQTYLEYHGGPGVQHIALASNDVLRTLREMRARTPMGGFEFMAPPQAKYYEGVRRIAGDVLSEEQIKECQELGVLVDRDDQGVLLQIFTKPVGDRPTFFLEMIQRIGCMEKDEVGQEYQKGGCGGFGKGNFSELFKSIEDYEKSLEVKQSVVAQKS
modifications: mutant HPPD polypeptide
B3: V258I: V258I mutant of SEQ ID NO:14 (protein)
chain: MPPTPATATGAAAAAVTPEHAARSFPRVVRVNPRSDRFPVLSFHHVELWCADAASAAGRFSFALGAPLAARSDLSTGNSAHASLLLRSGALAFLFTAPYAPPPQEAATAATASIPSFSADAARTFAAAHGLAVRSVGVRVADAAEAFRVSVAGGARPAFAPADLGHGFGLAEVELYGDVVLRFVSYPDETDLPFLPGFERVSSPGAVDYGLTRFDHVVGNVPEMAPVIDYMKGFLGFHEFAEFTAEDVGTTESGLNSIVLANNSEAVLLPLNEPVHGTKRRSQIQTYLEYHGGPGVQHIALASNDVLRTLREMRARTPMGGFEFMAPPQAKYYEGVRRIAGDVLSEEQIKECQELGVLVDRDDQGVLLQIFTKPVGDRPTFFLEMIQRIGCMEKDEVGQEYQKGGCGGFGKGNFSELFKSIEDYEKSLEVKQSVVAQKS
modifications: mutant HPPD polypeptide
B4: V258A: V258A mutant of SEQ ID NO:14 (protein)
chain: MPPTPATATGAAAAAVTPEHAARSFPRVVRVNPRSDRFPVLSFHHVELWCADAASAAGRFSFALGAPLAARSDLSTGNSAHASLLLRSGALAFLFTAPYAPPPQEAATAATASIPSFSADAARTFAAAHGLAVRSVGVRVADAAEAFRVSVAGGARPAFAPADLGHGFGLAEVELYGDVVLRFVSYPDETDLPFLPGFERVSSPGAVDYGLTRFDHVVGNVPEMAPVIDYMKGFLGFHEFAEFTAEDVGTTESGLNSAVLANNSEAVLLPLNEPVHGTKRRSQIQTYLEYHGGPGVQHIALASNDVLRTLREMRARTPMGGFEFMAPPQAKYYEGVRRIAGDVLSEEQIKECQELGVLVDRDDQGVLLQIFTKPVGDRPTFFLEMIQRIGCMEKDEVGQEYQKGGCGGFGKGNFSELFKSIEDYEKSLEVKQSVVAQKS
modifications: mutant HPPD polypeptide
B5: S420A: S420A mutant of SEQ ID NO:14 (protein)
chain: MPPTPATATGAAAAAVTPEHAARSFPRVVRVNPRSDRFPVLSFHHVELWCADAASAAGRFSFALGAPLAARSDLSTGNSAHASLLLRSGALAFLFTAPYAPPPQEAATAATASIPSFSADAARTFAAAHGLAVRSVGVRVADAAEAFRVSVAGGARPAFAPADLGHGFGLAEVELYGDVVLRFVSYPDETDLPFLPGFERVSSPGAVDYGLTRFDHVVGNVPEMAPVIDYMKGFLGFHEFAEFTAEDVGTTESGLNSVVLANNSEAVLLPLNEPVHGTKRRSQIQTYLEYHGGPGVQHIALASNDVLRTLREMRARTPMGGFEFMAPPQAKYYEGVRRIAGDVLSEEQIKECQELGVLVDRDDQGVLLQIFTKPVGDRPTFFLEMIQRIGCMEKDEVGQEYQKGGCGGFGKGNFSELFKAIEDYEKSLEVKQSVVAQKS
modifications: mutant HPPD polypeptide
B6: I299M: I299M mutant of SEQ ID NO:14 (protein)
chain: MPPTPATATGAAAAAVTPEHAARSFPRVVRVNPRSDRFPVLSFHHVELWCADAASAAGRFSFALGAPLAARSDLSTGNSAHASLLLRSGALAFLFTAPYAPPPQEAATAATASIPSFSADAARTFAAAHGLAVRSVGVRVADAAEAFRVSVAGGARPAFAPADLGHGFGLAEVELYGDVVLRFVSYPDETDLPFLPGFERVSSPGAVDYGLTRFDHVVGNVPEMAPVIDYMKGFLGFHEFAEFTAEDVGTTESGLNSVVLANNSEAVLLPLNEPVHGTKRRSQIQTYLEYHGGPGVQHMALASNDVLRTLREMRARTPMGGFEFMAPPQAKYYEGVRRIAGDVLSEEQIKECQELGVLVDRDDQGVLLQIFTKPVGDRPTFFLEMIQRIGCMEKDEVGQEYQKGGCGGFGKGNFSELFKSIEDYEKSLEVKQSVVAQKS
modifications: mutant HPPD polypeptide
B7: V258K: V258K mutant of SEQ ID NO:14 (protein)
chain: MPPTPATATGAAAAAVTPEHAARSFPRVVRVNPRSDRFPVLSFHHVELWCADAASAAGRFSFALGAPLAARSDLSTGNSAHASLLLRSGALAFLFTAPYAPPPQEAATAATASIPSFSADAARTFAAAHGLAVRSVGVRVADAAEAFRVSVAGGARPAFAPADLGHGFGLAEVELYGDVVLRFVSYPDETDLPFLPGFERVSSPGAVDYGLTRFDHVVGNVPEMAPVIDYMKGFLGFHEFAEFTAEDVGTTESGLNSKVLANNSEAVLLPLNEPVHGTKRRSQIQTYLEYHGGPGVQHIALASNDVLRTLREMRARTPMGGFEFMAPPQAKYYEGVRRIAGDVLSEEQIKECQELGVLVDRDDQGVLLQIFTKPVGDRPTFFLEMIQRIGCMEKDEVGQEYQKGGCGGFGKGNFSELFKSIEDYEKSLEVKQSVVAQKS
modifications: mutant HPPD polypeptide
B8: T372S: T372S mutant of SEQ ID NO:14 (protein)
chain: MPPTPATATGAAAAAVTPEHAARSFPRVVRVNPRSDRFPVLSFHHVELWCADAASAAGRFSFALGAPLAARSDLSTGNSAHASLLLRSGALAFLFTAPYAPPPQEAATAATASIPSFSADAARTFAAAHGLAVRSVGVRVADAAEAFRVSVAGGARPAFAPADLGHGFGLAEVELYGDVVLRFVSYPDETDLPFLPGFERVSSPGAVDYGLTRFDHVVGNVPEMAPVIDYMKGFLGFHEFAEFTAEDVGTTESGLNSVVLANNSEAVLLPLNEPVHGTKRRSQIQTYLEYHGGPGVQHIALASNDVLRTLREMRARTPMGGFEFMAPPQAKYYEGVRRIAGDVLSEEQIKECQELGVLVDRDDQGVLLQIFSKPVGDRPTFFLEMIQRIGCMEKDEVGQEYQKGGCGGFGKGNFSELFKSIEDYEKSLEVKQSVVAQKS
modifications: mutant HPPD polypeptide
B9: G254A: G254A mutant of SEQ ID NO:14 (protein)
chain: MPPTPATATGAAAAAVTPEHAARSFPRVVRVNPRSDRFPVLSFHHVELWCADAASAAGRFSFALGAPLAARSDLSTGNSAHASLLLRSGALAFLFTAPYAPPPQEAATAATASIPSFSADAARTFAAAHGLAVRSVGVRVADAAEAFRVSVAGGARPAFAPADLGHGFGLAEVELYGDVVLRFVSYPDETDLPFLPGFERVSSPGAVDYGLTRFDHVVGNVPEMAPVIDYMKGFLGFHEFAEFTAEDVGTTESALNSVVLANNSEAVLLPLNEPVHGTKRRSQIQTYLEYHGGPGVQHIALASNDVLRTLREMRARTPMGGFEFMAPPQAKYYEGVRRIAGDVLSEEQIKECQELGVLVDRDDQGVLLQIFTKPVGDRPTFFLEMIQRIGCMEKDEVGQEYQKGGCGGFGKGNFSELFKSIEDYEKSLEVKQSVVAQKS
modifications: mutant HPPD polypeptide
B10: E416Q: E416Q mutant of SEQ ID NO:14 (protein)
chain: MPPTPATATGAAAAAVTPEHAARSFPRVVRVNPRSDRFPVLSFHHVELWCADAASAAGRFSFALGAPLAARSDLSTGNSAHASLLLRSGALAFLFTAPYAPPPQEAATAATASIPSFSADAARTFAAAHGLAVRSVGVRVADAAEAFRVSVAGGARPAFAPADLGHGFGLAEVELYGDVVLRFVSYPDETDLPFLPGFERVSSPGAVDYGLTRFDHVVGNVPEMAPVIDYMKGFLGFHEFAEFTAEDVGTTESGLNSVVLANNSEAVLLPLNEPVHGTKRRSQIQTYLEYHGGPGVQHIALASNDVLRTLREMRARTPMGGFEFMAPPQAKYYEGVRRIAGDVLSEEQIKECQELGVLVDRDDQGVLLQIFTKPVGDRPTFFLEMIQRIGCMEKDEVGQEYQKGGCGGFGKGNFSQLFKSIEDYEKSLEVKQSVVAQKS
modifications: mutant HPPD polypeptide

This data set is described as follows: catalytic activity and herbicide resistance of mutants of SEQ ID NO:14 in extracts. The class given is biochemical, Avena sativa. An excerpt: These further mutations can all be optionally combined with the resistance conferring mutations to produce catalytically active variants of HPPD herbicide resistant enzymes of the current invention.
Take B1: the “catalytic activity and resistance to sulcotrione relative to control, unmutated SEQ ID NO:14” value is listed as “neutral mutations”. For B2, the “catalytic activity and resistance to sulcotrione relative to control, unmutated SEQ ID NO:14” value is recorded as “neutral mutations”. In the case of B3, the “catalytic activity and resistance to sulcotrione relative to control, unmutated SEQ ID NO:14” value was “neutral mutations”. As for B4, the “catalytic activity and resistance to sulcotrione relative to control, unmutated SEQ ID NO:14” value is on record as “neutral mutations”. The entry for B5 is “neutral mutations”; for B6 it is “neutral mutations”; for B7 it is “neutral mutations”. On to B8, for which the “catalytic activity and resistance to sulcotrione relative to control, unmutated SEQ ID NO:14” value is reported as “neutral mutations”.

In the case of B9, the “catalytic activity and resistance to sulcotrione relative to control, unmutated SEQ ID NO:14” value was “neutral mutations”.

In the case of B10, the “catalytic activity and resistance to sulcotrione relative to control, unmutated SEQ ID NO:14” value is listed as “neutral mutations”.
